Data reported in paper PMC3672086, “TWEAK-Independent Fn14 Self-Association and NF-κB Activation Is Mediated by the C-Terminal Region of the Fn14 Cytoplasmic Domain” (PLoS ONE, 2013).

Molecular target: the molecule itself
Assay: cross-linking; cell surface proteins of transfected HEK293/NF-κB-luc/Fn14-HA cells cross-linked with 1 mM BS3 in PBS, 20 min, room temperature; lysis in HNTG buffer, reducing SDS-PAGE, anti-myc Western blot

B1: myc epitope-tagged Fn14 extracellular domain deletion (Fn14-ΔEC) (receptor, human, UniProt Q9NP84 28-129, looked up)
chain: EQAPGAAAPPAPFRLLWPILGGALSLTFVLGLLSGFLVWRRCRRREKFTTPIEETGGEGCPAVALIQ
notes: human Fn14 splice variant (exon 2 skipped), 94-aa precursor missing amino acids 33-67 of the extracellular domain; mature myc-tagged protein 77 aa; Cloned from U87-luc cell mRNA; natural splice variant mRNA, endogenous protein not detected by the authors; also called ΔEC mutant; short Fn14 isoform; source: HEK293 or HEK293/NF-κB-luc/Fn14-HA cells, transiently transfected (pcDNA6/Fn14-ΔEC), on …
stoichiometry N: 2
